According to patent US6165749:

Tested on: AccIII restriction endonuclease (L2V) L2V
Assay: cleavage_in_vitro
Conditions: Takara data sheet conditions; about 16 times the level of the Acc bacterium

## AccIII assay substrate DNA (data sheet conditions)
  activity (units per g wet cells): 8000
